Reference: patent US20230295308A1, “ANTAGONISTIC BIPARATOPIC ANTIBODIES THAT SPECIFICALLY BIND FIBROBLAST GROWTH FACTOR RECEPTOR 2 AND METHODS OF USING SAME” (The Broad Institute, Inc., priority 2020, published 2023)

Experiments:
[1] = molecular target: FGFR2 on SNU-16 gastric cancer cell line with FGFR2 amplification (UniProt P21802); assay: FACS on SNU-16 cells, % cells with FITC+ [cont.]
[2] = molecular target: T1, FGFR2IIIb; assay: row 'Kd (nM) (patent)', value quoted from the source patent; method: Radioimmunoassay-purified FGFR2IIIb
T1 construct: also called purified FGFR2IIIb
T1 chain: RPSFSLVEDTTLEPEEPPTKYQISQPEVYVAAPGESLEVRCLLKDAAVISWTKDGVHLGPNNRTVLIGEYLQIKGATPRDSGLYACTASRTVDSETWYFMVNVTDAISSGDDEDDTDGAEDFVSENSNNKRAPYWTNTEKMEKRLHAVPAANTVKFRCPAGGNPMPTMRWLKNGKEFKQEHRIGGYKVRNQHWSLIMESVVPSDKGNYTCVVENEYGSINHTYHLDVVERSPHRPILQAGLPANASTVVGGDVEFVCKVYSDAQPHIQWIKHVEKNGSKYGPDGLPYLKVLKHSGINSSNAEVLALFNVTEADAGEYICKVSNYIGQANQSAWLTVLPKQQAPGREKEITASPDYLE

[3] = molecular target: FGFR2 on SNU-16 gastric cancer cell line with FGFR2 amplification (UniProt P21802); assay: row 'Kd (nM) (FACS)'; FACS on SNU-16 cells
[4] = test system: cells transformed with patient-derived FGFR2 having ECD activating deletion mutations; assay: patient-derived FGFR2 ECD mutation driven cell growth (FIG. 4F); assay type: cell-based; details: fold change from nonspecific IgG control
Text: FIGS. 4A-4F present schematic diagrams, blots, images, tables and graphs showing that the FGFR2 extracellular domain is important for FGFR2 fusion driven cell growth and transformation and that patient-derived FGFR2 extracellular domain mutations increased transformation capacity. As also shown, some parental antibodies were effective in inhibiting ECD mutation driven cell growth. FIG. 4A is a graph showing that FGFR2-BICC1, FGFR2-AHCYL1, and FGFR2-PHGDH fusions grow faster compared to controls and respond to FGF ligands. The FGFR2 extracellular domain (ECD) contributes to the growth of transformed NIH3T3 cells expressing FGFR2 fusions. […] In addition, the ability of the antibodies described herein to inhibit the growth of the cells that overexpressed the ECD mutant FGFR2 fusions was assessed. […]
Expression of FGFR2-BICC1, FGFR2-AHCYL1, and FGFR2-PHGDH in NIH3T3 cells induced increased proliferation. […] By way of example, antibodies C, D, and E were effective in blocking the growth of cells having a patient-derived FGFR2 ECD activating mutation, as determined by assessing fold-increase or decrease from a nonspecific Ab (IgG) control (FIG. 4F); therefore, combinations of the binding regions of these antibodies in biparatopic antibodies may likely result in a synergistic blocking effect.

EC50 (read off the curve) [1]: 0.3 µg/mL
Kd [2]: 3 nM
Kd [3]: 1.78 nM
B1: 2B 1.3.12 (antibody, V domains shown)
VH: EVQLVESGGGLVQPGGSLRLSCAASGFPFTSTGISWVRQAPGKGLEWVGRTHLGDGSTNYADSVKGRFTISADTSKNTAYLQMNSLRAEDTAVYYCARTYGIYDTYDMYTEYVMDYWGQGTLVTVSS
VL: DIQMTQSPSSLSASVGDRVTITCRASQDVDTSLAWYKQKPGKAPKLLIYSASFLYSGVPSRFSGSGSGTDFTLTISSLQPEDFATYYCQQSTGHPQTFGQGTKVEIK
notes: the duobody scheme implies IgG1 with K409R or F405L; also called Antibody D; GE
blocking growth of cells having a patient-derived FGFR2 ECD activating mutation [4]: effective
